Publication PMC3498381, “Isolated Toll-like Receptor Transmembrane Domains Are Capable of Oligomerization” (PLoS ONE, 2012)
No end group written: not given here.

Assays:
[1] = Circular dichroism, helical content by CDNN; type: physicochemical; conditions: CD, CDNN analysis; 5-10 µM peptide, 10 mM C14-betaine micelles, 20 mM HEPES pH 7.4, 25°C, average of 9 scans
Experimental: Figure 4 Circular Dichroism Spectra of TLR1, TLR2, and TLR6 Synthetic TMD Peptides. Far-UV spectra of the synthetic TMD peptides at concentrations ranging from 5–10 µM in the presence of 10 mM C14-betaine detergent micelles. Spectra were collected at 25°C with a step size of 1 nm and are the average of 9 scans. All peptides had helical content >99% (Table S11) as determined using CDNN [63].
CD measurements were performed on a ChirascanPlus spectrometer (Applied Photophysics) using a 1.0 mm path length quartz cuvette. Peptides and C14-Betaine (3-(N,N-Dimethylmyristylammonio)propanesulfonate: Sigma) were co-dissolved in 2,2,2-trifluoroethanol. The organic solvent was removed by drying to a thin film using N2 and further dried overnight under reduced pressure to remove all traces of TFE. Samples were resusupended in a 20 mM HEPES buffer, pH 7.4, yielding a final C14-Betaine concentration of 10 mM. Peptide concentrations were determined using Beer-Lambert law with coumarin absorbance at 400 nm using ε400 of 39,300 M^−1 cm^−1 [62] and FITC absorbance at 495 nm using ε495 of 68,000 M^−1 cm^−1 (Invitrogen). Peptides were prepared such that final concentrations were in the 5–10 µM range. All CD spectra were measured at 25°C with a step size of 1 nm and are reported as the average of 9 scans. Data were not collected below 200 nm due to the high voltage and background noise from the C14-Betaine buffer. Helical content was determined using CDNN [63].

[2] = tested on: GpA TMD (functional ToxR chimera); assay: Dominant-negative (heterotypic) ToxR assay, GpA as dominant phenotype; type: cell-based; conditions: Miller units normalized to poly-Leu* = 1 and corrected for expression, lower = stronger interaction, N in table
Excerpt: Next, we investigated heterotypic interactions of the TLRs. We specifically studied TLR2, TLR1, and TLR6 because they are cell surface expressed receptors known to form functional heterodimers. To determine the ability of these three cell surface TLRs to have heterotypic interactions within its family, we studied the ability of the TLR1, TLR2, and TLR6 TMDs to interact with the TLR receptors also expressed at the cell surface; namely, TLR1, TLR2, TLR4, TLR5, TLR6, and TLR10. We monitored these interactions using a dominant-negative ToxR assay (Fig. S1B) which works by having a second TMD expressed with a non-functional ToxR* intracellular domain. This ToxR* domain is incapable of binding the ctx promoter making any interactions with this second expressed TMD unable to produce the reporter enzyme. As such, any interaction between the functional ToxR and non-functional ToxR* TMDs will result in a reduction in signal output.
Figure 3 Cell- Surface Toll-like Recptor Heterotypic Interactions. (A) A dominant-negative ToxR assay was used to study heterotypic interactions of the cell-surface TLRs. Two TLR TMDs were encoded in the FHK12 E.coli reporter strain, one with a functional ToxR domain (dominant phenotype) and one with a nonfunctional ToxR* domain (negative phenotype). Interaction between the two different TMDs leads to a reduction in signal from that seen for homotypic interactions. The TMDs for GpA, TLR1, TLR2, and TLR6 were used with the functional ToxR domain while TMDs for poly-Leucine, TMD5, integrin αIIb, TLR1, TLR2, TLR4, TLR5, TLR6, and TLR10 were used with the nonfunctional ToxR* domain. Interactions were most prominent for the TLRs known to have heterotypic interactions – TLR2-TLR1 and TLR2-TLR6. […] We also saw interaction with the same TMD further validating the homotypic interactions. […] Each dominant phenotype was done in 3 technical replicates with each negative phenotype and >6 measurements made for each replicate. Error bars depict the standard error of the mean (n- Tables S3, S5, S7, S9). Western blots staining for MBP were performed to monitor expression levels of the constructs with the upper band being functional ToxR chimeras and the lower band being nonfunctional ToxR* chimeras – (B) GpA, (C) TLR1, (D) TLR2, and (E) TLR6. Significant differences for the same dominant phenotype were determined by use of the Tukey-Kramer test.
For heterotypic interactions one plasmid containing a functional ToxR domain (200 ng) and a second plasmid containing a non-functional ToxR* domain (200 ng) were co-transformed into chemically competent FHK12 E. coli (400 µL) by incubating on ice for 30 min, heat shock at 42°C for 90 s, incubation on ice for 2 min, and addition of SOC media (1600 µL) followed by incubation with shaking for 1 h at 37°C. This transformation mixture (50 µL) was then used to spread LB-agar plates containing cholaramphenicol (30 µg/mL), kanamycin (33 µg/mL), and ampicillin (100 µg/mL) and grown overnight at 37°C. Single colonies were selected from the plates and grown in 5 mL LB media containing cholaramphenicol (30 µg/mL), kanamycin (33 µg/mL), ampicillin (100 µg/mL), and arabinose (0.0025%) overnight (16–20 h) with shaking at 37°C. Analysis of activity was monitored as described in homotypic ToxR assays. Western blotting was done in the same manner as the homotypic ToxR assay with one band appearing for the functional ToxR construct and a second band for the nonfunctional ToxR* construct. Data were normalized to poly-Leu* Miller Units and corrected for varying protein expression levels using ImageJ (NIH) as previously reported.

Substance: TLR1*: TLR1 TMD chimera with nonfunctional ToxR* domain (negative phenotype) (GNRASITLLIVTIVATMLVLAVTVTSLCSYLGSLIN; also: fused to non-functional ToxR* (S87H) and maltose binding protein, ends not given here)
- Helix content, 200-260 nm [1]: 99.70%
- Helix content, 205-260 nm [1]: 99.90%
- Helix content, 210-260 nm [1]: 99.90%
- Mean GpA-TMD* heterotypic interaction (ToxR signal) [2]: 0.8934

Substance: TLR2*: TLR2 TMD chimera with nonfunctional ToxR* domain (negative phenotype) (GNRASALVSGMCCALFLLILLTGVLCGSLIN; cysteine pairing not given here; also: fused to non-functional ToxR* (S87H) and maltose binding protein, ends not given here)
- Helix content, 200-260 nm [1]: 99.80%
- Helix content, 205-260 nm [1]: 99.90%
- Helix content, 210-260 nm [1]: 99.90%
- Mean GpA-TMD* heterotypic interaction (ToxR signal) [2]: 0.7284

Substance: TLR6*: TLR6 TMD chimera with nonfunctional ToxR* domain (negative phenotype) (GNRASITLLIVTIGATMLVLAVTVTSLCIYLGSLIN; also: fused to non-functional ToxR* (S87H) and maltose binding protein, ends not given here)
- Helix content, 200-260 nm [1]: 99.90%
- Helix content, 205-260 nm [1]: 100.00%
- Helix content, 210-260 nm [1]: 100.00%
- Mean GpA-TMD* heterotypic interaction (ToxR signal) [2]: 1.0451
